Reference: the nanobody polyreactivity screen of Harvey et al. (2022)

test: yeast display, Sf9 membrane polyspecificity reagent, FACS + sequencing; frameworks hold sequencing errors
How it was run: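 In a synthetic yeast display library (Saccharomyces cerevisiae BJ5465), nanobody expression was induced with galactose for 36–48 hours. FACS gates were set low and high (top ~1%) using anti-HA fluorescence for expression and streptavidin fluorescence for binding of the Sf9 membrane reagent. Each polyreactivity label is drawn from the gate of origin.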

Row | Sequence | polyreactivity (PSR sort gate)
1 | QVQLVESGGGLVQAGGSLRLSCAASGSTFYSYAMGWYRQAPGKEREFVAVISWSGGRTRYADSVKGRFTISRDNAKNTVYLQMNSLKPEDTAVYYCNARKWGYSPHRKGDRHFEYWGQGTQVTVSS | low polyreactivity
2 | QVQLVESGGGLVQAGGSLRLSCAASGSIFYFYAMGGYRQAPGKERELVAAIRSSDGITYYADSVKGRFTISRDNAKNTVYLQMNSLKPEDTAVYYCAALVRDFYNWDTLYYWGQGTQVTVSS | low polyreactivity
3 | QVQLVESGGRLVQSGGSLRLSCAASGRIFLYYTMGWYRQAPGKERELVATIRSGDSTNYADSVKGRFTISRDNAKNTVYLQMNSLKPEVTAVYYCAADWDIFQQGANGAPYDYWGQGTQVTVSS | low polyreactivity
4 | PVQLVESGGGLVQAGGSLRLSCAASGRIFSSYTMGWNIQAPGKERELVAAISWRGGSTYYADSVKGRFTISRDNAKNTVYLLMNSLKPEDTAVYYCAADSRSHPGDYWGHGTQVTVSS | low polyreactivity
5 | QVQLVESGGGLVQAGGSLRLSCAASGRIFEYAMGWYRQAPGKERELVAGITRSSSTNYADSVKGRFTISRDNAKNTVYLQKNSLKPEDTAVYYCNAESRSWYLYHYDYWGQGTQVTVSS | low polyreactivity
6 | QVQLVESGGGLVQAGGSLRLSCAASGSIFKVNTMGWYRQAPGKERELVAAISSSDDSTYYADSVKGRFTISRDNAKNTVYLQMNSLKPEDTAVYYCAADGSSVDSGGINDEYWGQGTQVTVSS | low polyreactivity
7 | QVQLVESGGGLVQAGGSLRLSSAASGITFCRNTMGWYRQAPGKERELVAAIDSGGNTYADSVKGRFTISRDNAKNTVNLHINSLKPEYTAVYYCAKDSGPRGSYGYAFDSWGQGTQVTVSS | low polyreactivity
8 | QVQLVESGGGLVQAGGSLRLSCAASGIIFTSNTMGWYRQAPGKEREFVASINWNGSSTYADSVKGRFTISRDNAKNTVFLQMNSLKPEDTAVYDCNADYYRNSVQFSLYDYWGHGTQVTVSS | low polyreactivity
9 | QVQLVESGGGLVQAGGSLRLSCAASGSIFPSYAMGWYRQAPGKERELVAAISRSAGSTYYADSVKGRFTISRDNAKNTVYLQMNSLKPEDTAVYYCAADGYSSRYRYDYWGQGTQVTVSS | low polyreactivity
10 | QDQLVESGGGLVQAGGSLRLSCASSGFTFNGYAMGWYRQAPGKERELVAAINISGGSTYYADSVKGRFTISRDNAKNTVYLQMNSLNPEDTAVYYCAARLWGKRYSYRYGYWGQGTQVTVSS | high polyreactivity
11 | QVQLVESGGGLVQAGGSLRLSCAASGFTFYYYAMGWYRQATGKVRELVAAISARGGSTYYADSVKGRFTISRDNAKNTVYLQMNSLKPEDTAVYYCNAVTGHTSYEYDYWGQGTQVTVSS | high polyreactivity
12 | QVQLQESGGGLVQAGGSLLSCAASGTISYYREMGWYRQAPGKERELVAGIGVGTITYYADSVKGRFTISRDNAKNTVYLQMNSLKPEATAVYYCAAHIDGNDSHAYWGQGTQVTVSS | low polyreactivity
13 | QVQLVESGGGLVQAGGSLRLSCAASGRTIVTNAMGWYRQAPGKERELVAAITTRGSRTYYADSVKGRFTISRDNAKNTVYLQMNSLKPEDTAVYYCAAKQKHTQQTGWKYEYWGQGTQVTVSS | high polyreactivity
14 | QVQLVESGGGLVQAGGSLSLSCDASGSIFYYYAMGWYRQAPGKEREMVASITSSGGTTSYADSVKGRFTISRDNAKNTVYLQMNSLKPEDTAVYYCNAQVYRYRICYDFWGEGTQVTVSS | low polyreactivity
15 | QVQLVESGGGLVQAGGSLRLSCAASGSIFGGYAMGSYRQAPGKERELVAAISSGGTTNYADSVKGRFTISRDNAKNTVYLQMNSLKPEDTAVYYCAREYGPTYQSVPVKFIQLDYWGQGTQVTVSS | low polyreactivity
16 | QVQLVESGGGLVQAGGSLRLSCAASGSIFEGYVMGCDIQAPGKERELVATISFSGGSTYYADSVKGRFTISRDNAKNTVYLQMNSLKPEDTAVYYCNALVYHTKGDYGYWGQGTQVTVSS | low polyreactivity
17 | QVQLVESGGGLVQAGGSLRLSCAASGSTFFLYAMGWYRQAPGKERELVAAITYTDGDTYYADSVKGRFTISRDNAKNTVYLQMNSLKPEDTAVFYCNAGGDEPVYGSGYDYWGQGTQVTVSS | low polyreactivity
18 | QVQLVESGGGLVQAGGSLRLSCAASGFIFANYAMGWDRQAPGKERELVAAISTSGSSTYYADSVKGRFTISRDNAKNTVYLQMNSLKPKDTAVYYCRTSGKHRLYISSYRFEYWGQGTQVTVSS | high polyreactivity
19 | QVQLVESGGGLVQAGGSLRLSCAAYGHIFFYYTMGWYRQAPGKERELVAAITIGGSTNYADSVKGRFTISRDYAKNTVYLQMNSLKPEDTAVYYCNVVKYVYIYSYWEYYYWGHGTQVTVSS | low polyreactivity
20 | QVQLVESGGGLVQAGGSLRLSCAPSGRTIYHYAMGWYRQAPGKERELVAAITWSGGSTYYADSVKGRVTISRDNAKKTVYLQMNSLKPEDTAVYYWARYPARYGGYYDYDYWGQGTQVTVSS | high polyreactivity
21 | QVQLVESGGGLVQAGGSLRLSCAASGSTISINALGWSRQAPGKERELVAAITGGDTNTYYADSVKGRFTISRDTAKNTVYLLMNSLKPEDTAVYYCNARIYDYAGAGTWSYDSWGQGTQVTVSS | low polyreactivity
22 | QVQLVESGGGLVQAGGSLRLSCAPSGSTFNNYALGGYRQAPGKERELVAAIRSIGGSTYYADSVKGRFTISRDNAKNTVYLQMNSLKPEDTAVYYCAADYFYLKWYEYWGQGTQVTVSS | high polyreactivity

Row | Sequence | polyreactivity (PSR sort gate)
23 | QVQLVESGGGLVQAGGSLRLSCAASGSIFGYNSMGWDRQAAGKERELVAAIYSGGNTYYADSVKGRFTISRDNAKNTVYLQMNSLKPEDTAVYYCAADGYDDSTSRWYEYWGQGSQVTVSS | low polyreactivity
24 | QVQLVESGGGLVQAGGSLRLTCAASGLIFPFYAMGWYRQATGKERELVAAISSRGGSTYYADSVKGRFTISRDNAKNTVYLQMSSLKPEDTAVYYCAADYGEEYEYSGQGTQVTVSS | high polyreactivity
25 | QVQLVESGGGLVQAGGSLRLSCAASGFIFGLYAMGWYRQAPGKERELVASISRRGGSTYYADSVKGRFTISRDNAKNTVYLQMNSLKPEDTAVYYCNAVGRLYLYGSWGQGTQVTVSS | high polyreactivity
26 | QVQLVESGGGLVQAGGSLRLSCAASGFIFRYYAMGWYIQAPWKERELVAAIRRGRSTYYADSVKGRFTISRDNAKYTVYLQMNSLKPEDTAVDYCAVRLVSRFGISSYDYWGQGTQVTVSS | high polyreactivity
27 | QVQLVESGGGLVQEGGSLRLSCAASGFTVTDYAMGLYRQAPGKERELVAAITSSGGRTYYADSVKGRFTISRDNAKNTVYLQMNSLKPEDTAGYYCTARPHGSWFEYDYWGQGTEVTVSS | high polyreactivity
28 | QVQLVESGGGLVQAGGSLRLSCAASGSTSVPYAMGWYRQAPGKERELVAAITIGGSTNYADSVKGRFTISRDNAKNTVYLQMNSLKPEDTAVYYCNAVLTQYWKLVRYYGVDYWGQGTQVTVSS | low polyreactivity
29 | QVQLVESGGGLVQAGGSLRLSCAASGTTFDVYAMGWYRQAPGKERELVAAISTRGTRTYYADSVKGRFTISRDNAKNTVYLQMNSLKPEETAVYYCAAYVYDGETVSRFDYWGQGTQVTVSS | high polyreactivity
30 | QVQLVESGGRLVQAGGSLRLSCAASGSIFRSYAMAWYRPAPGKERELVAGISYSGGSTYYADSVKGRFTISRDNAKNTVYLQMNSLKPEDTAVYYCNVDGGTYFFFVGAWGEYDYWGQGTQVTVSS | low polyreactivity
31 | QVQLVESGGGLVQAGGSLRLSCAASGTIFVLYAMGWYRQAPGKERELVAAITTGGGTNYADSVKGRFTISRDNEKNTVYLQMNRLKPEDTAVYYCAADTGWYDDWTHDYWGQGTQVTVSS | low polyreactivity
32 | QVQLVESGRGLVQAGGSLRLSCAASGSTFWNNGMGWYRQAPGKERELVAAINWSGDSTYYADSVKGRFTISRDNAKNTVYLQMNSLKPEDTAVYYCAAGYYTYSRRSSFFVAYGYWGQGTQVTVSS | low polyreactivity
33 | QVQLVESGGGLVQAGGSLRLSCAASGSIFVYYAMGWYRQAPGKERELVAAINSSGGRTYYADSVKGRFTISRDNAKNTVYLQMNSLKPEETAVYYCAAVYRYWTSYNGRNYWGQGTQVTVSS | high polyreactivity
34 | QVQLVESGGGLVQAGGSLRLSCAASGSIFYKYALGWYRQAPGKERELVASITWSDGNTNYADSVKGRFTISRDNAKNTVYLQMNSLKPEDTAVYYCADGGWYPTSRIFDYWGQGTQVTVSS | low polyreactivity
35 | QVQLVESGGGLVQAGGSLRLSCAASGFIFAYNAMGWYRQAPGKERELVAAITGSGTRTYYADSVKGRFTISRDKAKNTVYLQMYSLKPEDTAVYYCAARFPRDTYYYWGQGTQVTVSS | high polyreactivity
36 | QVQLVESGGGLVQAGGSLRLSCAASGFTFTTYGMGWSRQAPWKERELVAAISWSGGSTYYADSVKGRFTISRDNAKNTVYLQMNSLNPEYTAVYYCAKDRTYQASTLGYWGQGTQVTVSS | low polyreactivity
37 | QVQLVESGGGVVQAGGSLRLSCAASGSTFDVYAMGWYRQAPGKERELVAAITSGGTTNYADSVKGRFTNSRDNAKNTVYLQMNSLKPEDTAVYYCAADSPWGGGYFVLYNYWGQGTQVTVSS | low polyreactivity
38 | QVQLVESGGGLVQAGGSLRLSCAASGITIYIYAMGWYRQAPGKERELVAAISDVGSTHYADSVKGRFTISRDNAKNTVYLQMNSLKPEDTAVYYCNADYYWFFVFFDYDYWGQGTQVSVSS | low polyreactivity
39 | QVQLVESGGGLVQAGGSLRLSCAASGRIFNQYGMGWYRQAPGKERELVAAIRSGDSTNYADSVKGRFTISRDNAKNTVYLQMNSLKPEDTAVYYCARDFSPGSSDPKASISFDHWGQGTQVTVSS | low polyreactivity
40 | QVQLVESGGCLVQAGGSLRLSCAASGFIFSYYTMGWYRQAPGKERALVAAISYSGGSTYYADSVKGRFTISRDNAKKTVYLQMNSLKPEDTAVYYCAAETYGYYVIRYDYWGQGTQVTVSS | high polyreactivity
41 | QVQLVESGGGLVQAGGSLRLSCAASGGTFGVNAMGWYRQAPGKERELVAAISSSGGRTYYADSVKGRFTISRDNAKNTVYLQVNSLKPEDTAVYYCAARNYFWGQGTQVTVSS | low polyreactivity
42 | QVQLVESGGGLFQAGGSLRLSCAASGRIFHGYDMGWYRQAPGKERELVAAITWRGGSTYADSVKGRFTISRDNGKNTVYLQMNSLKPEDTAVYYCAADTVYYGYFFYYWGQVTQVTVSS | high polyreactivity
43 | QVHLVESRGRLVQAGGSLRLSCAASGSIFEPNAMGWYRQAPGKEREFVAAISGSGGSTYYADSVKARFTISRDNAKNTVYLQMNSRNPEDTAVYYCATRGKRSYFRTFYYWGQATQVTVSS | high polyreactivity
